Assay results taken from US20180002425A1.

Experiments:
[1] = target: granulocyte colony stimulating factor receptor (UniProt Q99062)
[2] = target: wild-type human TpoR on Ba/F3-hMpl cells (human) (UniProt P40238); assay: cell-based or functional assay
[3] = target: TpoR-IL6ST chimeric receptor on HEK293T SIE-bla reporter cells (clone CR2-9) (human) (UniProt P40238); assay: cell-based or functional assay

Chain of granulocyte colony stimulating factor receptor (Q99062 25-836 limits assumed): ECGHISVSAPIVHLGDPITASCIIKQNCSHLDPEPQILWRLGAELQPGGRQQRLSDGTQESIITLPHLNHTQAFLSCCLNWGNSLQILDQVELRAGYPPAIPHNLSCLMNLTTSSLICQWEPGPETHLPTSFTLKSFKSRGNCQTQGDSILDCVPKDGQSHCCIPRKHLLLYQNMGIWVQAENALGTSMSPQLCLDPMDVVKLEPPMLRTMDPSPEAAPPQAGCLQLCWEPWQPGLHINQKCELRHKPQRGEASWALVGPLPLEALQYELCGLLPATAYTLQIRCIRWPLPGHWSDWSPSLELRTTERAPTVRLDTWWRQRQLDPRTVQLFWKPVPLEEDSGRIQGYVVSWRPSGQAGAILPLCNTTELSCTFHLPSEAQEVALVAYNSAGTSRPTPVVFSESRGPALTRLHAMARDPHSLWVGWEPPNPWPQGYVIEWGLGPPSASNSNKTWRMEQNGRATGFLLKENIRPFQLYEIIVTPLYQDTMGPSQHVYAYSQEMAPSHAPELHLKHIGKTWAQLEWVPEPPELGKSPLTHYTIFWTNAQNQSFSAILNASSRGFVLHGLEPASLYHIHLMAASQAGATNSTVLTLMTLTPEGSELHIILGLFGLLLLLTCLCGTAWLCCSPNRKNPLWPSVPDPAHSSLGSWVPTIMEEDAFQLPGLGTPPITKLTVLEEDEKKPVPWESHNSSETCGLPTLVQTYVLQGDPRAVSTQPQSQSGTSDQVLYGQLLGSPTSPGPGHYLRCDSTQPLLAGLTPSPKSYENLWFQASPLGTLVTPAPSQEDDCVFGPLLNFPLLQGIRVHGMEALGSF

Row | Responsive Population (fraction of reporter cells in the gate, Pacific Blue-A against AmCyan-A, FRET beta-lactamase reporter; unit not given) [1] | EC50, long-term proliferation assay (MTS) of Ba/F3-hMPL cells [2] [nM] | EC50, short-term fluorescence (FRET beta-lactamase) reporter assay [3] [nM] | Substance
1 | 84.2 | – | – | granulocyte colony stimulating factor (from UniProt P09919 31-204) (ligand)
2 | – | 0.07 | 0.02 | Thrombopoietin (from UniProt P40225 22-353) (ligand)
